# Reference: article PMC2802452
# Molecular target: HLA-A2-mCFP (human)
# Assay: FRET or BRET
binder,measurement,value
Bap31-mYFP-KKEE (natural protein) MSLQWTAVATFLYAEVFVVLLLCIPFISPKRWQKIFKSRLVELLVSYGNTFFVVLIVILVLLVIDAVREIRKYDDVTEKVNLQNNPGAMEHFHMKLFRAQRNLYIAGFSLLLSFLLRRLVTLISQQATLLASNEAFKKQAESASEAAKKYMEENDQLKKGAAVDGGKLDVGNAEVKLEEENRSLKADLQKLKDELASTKQKLEKAENQVLAMRKQSEGLTKEYDRLLEEHAKLQAAVDGPMDKKEE,FRET efficiency at A:D of 1,5%
same,"fold FRET at A:D 1:1 after feeding Tax peptide, against controls",2 fold
